Test [1] addresses H1 hemagglutinin (A/South Carolina/1/1918) (Influenza A virus A/South …, UniProt Q9WFX3 18-520). As to the kind of experiment: yeast surface display titration.
Test [2] has as its target H3 hemagglutinin (A/Hong Kong/1/1968) (Influenza A virus A/Hong Kong/1/1968 …, UniProt Q91MA7 27-521). Nature of the test: yeast surface display titration.

This note sets out measurements from patent publication US20150376238A1 (University of Washington, published 2015).

Sequence of H1 hemagglutinin (A/South Carolina/1/1918) (Q9WFX3 18-520 limits assumed): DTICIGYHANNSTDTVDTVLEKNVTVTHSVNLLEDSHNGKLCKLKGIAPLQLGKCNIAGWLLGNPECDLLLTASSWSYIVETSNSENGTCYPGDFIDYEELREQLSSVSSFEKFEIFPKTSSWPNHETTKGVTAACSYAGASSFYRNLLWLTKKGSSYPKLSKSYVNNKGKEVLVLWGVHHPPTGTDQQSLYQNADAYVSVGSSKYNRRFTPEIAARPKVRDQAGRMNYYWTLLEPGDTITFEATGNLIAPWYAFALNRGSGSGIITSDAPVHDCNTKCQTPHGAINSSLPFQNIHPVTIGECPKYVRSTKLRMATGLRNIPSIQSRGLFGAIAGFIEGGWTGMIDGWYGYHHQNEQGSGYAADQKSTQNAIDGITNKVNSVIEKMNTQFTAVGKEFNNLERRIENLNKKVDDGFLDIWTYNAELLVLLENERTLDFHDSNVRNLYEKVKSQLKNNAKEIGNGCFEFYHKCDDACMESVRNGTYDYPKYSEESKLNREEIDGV
Sequence of H3 hemagglutinin (A/Hong Kong/1/1968) (Q91MA7 27-521 limits assumed): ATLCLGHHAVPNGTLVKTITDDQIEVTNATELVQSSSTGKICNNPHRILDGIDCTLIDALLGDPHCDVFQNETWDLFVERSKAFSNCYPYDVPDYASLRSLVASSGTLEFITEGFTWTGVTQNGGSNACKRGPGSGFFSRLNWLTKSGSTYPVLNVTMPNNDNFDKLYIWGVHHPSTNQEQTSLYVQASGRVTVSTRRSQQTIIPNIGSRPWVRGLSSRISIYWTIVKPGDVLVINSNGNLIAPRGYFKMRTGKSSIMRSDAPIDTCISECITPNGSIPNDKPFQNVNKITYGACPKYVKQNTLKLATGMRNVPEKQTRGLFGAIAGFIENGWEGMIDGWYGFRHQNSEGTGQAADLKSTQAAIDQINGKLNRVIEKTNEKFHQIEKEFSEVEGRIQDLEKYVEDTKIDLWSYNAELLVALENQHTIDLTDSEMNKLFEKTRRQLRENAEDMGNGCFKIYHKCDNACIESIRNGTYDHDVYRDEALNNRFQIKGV

B1: 52alt1-3 (designed binder)
chain: GIVNVPNPNTTKYQQLARSAIAIYNNHQNAHLEFVENLNVKEQVSYGAMYYITLAATDDAGKKKIYKAKVGVVESAGWVGVEEFKLV
Turning to B1, the binding result in test [1] is reported as “no binding”. For the same molecule, the affinity in test [2], expressed as Kd, was 3 nM.
